Assay [1] deals with T1, Cwf8-Myc13 (S. pombe Prp19) (S. pombe, UniProt O14011 1-488).
T1 sequence (looked up): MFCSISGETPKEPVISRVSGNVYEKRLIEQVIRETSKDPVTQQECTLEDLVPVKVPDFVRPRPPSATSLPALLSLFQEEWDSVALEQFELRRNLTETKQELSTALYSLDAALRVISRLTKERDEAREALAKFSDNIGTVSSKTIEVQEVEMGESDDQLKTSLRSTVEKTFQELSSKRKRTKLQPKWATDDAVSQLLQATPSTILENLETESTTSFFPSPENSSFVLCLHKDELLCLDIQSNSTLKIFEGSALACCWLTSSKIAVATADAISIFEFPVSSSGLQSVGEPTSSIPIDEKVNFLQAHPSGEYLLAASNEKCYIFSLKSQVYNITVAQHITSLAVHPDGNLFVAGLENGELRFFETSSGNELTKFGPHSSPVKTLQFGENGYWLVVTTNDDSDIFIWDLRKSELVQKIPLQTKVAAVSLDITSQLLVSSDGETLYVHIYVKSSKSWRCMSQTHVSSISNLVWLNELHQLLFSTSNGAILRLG
In words: co-IP.

The target in assay [2] is T2, Prp19, separately purified (analytical ultracentrifugation) (S. cerevisiae), P32523.
T2 chain: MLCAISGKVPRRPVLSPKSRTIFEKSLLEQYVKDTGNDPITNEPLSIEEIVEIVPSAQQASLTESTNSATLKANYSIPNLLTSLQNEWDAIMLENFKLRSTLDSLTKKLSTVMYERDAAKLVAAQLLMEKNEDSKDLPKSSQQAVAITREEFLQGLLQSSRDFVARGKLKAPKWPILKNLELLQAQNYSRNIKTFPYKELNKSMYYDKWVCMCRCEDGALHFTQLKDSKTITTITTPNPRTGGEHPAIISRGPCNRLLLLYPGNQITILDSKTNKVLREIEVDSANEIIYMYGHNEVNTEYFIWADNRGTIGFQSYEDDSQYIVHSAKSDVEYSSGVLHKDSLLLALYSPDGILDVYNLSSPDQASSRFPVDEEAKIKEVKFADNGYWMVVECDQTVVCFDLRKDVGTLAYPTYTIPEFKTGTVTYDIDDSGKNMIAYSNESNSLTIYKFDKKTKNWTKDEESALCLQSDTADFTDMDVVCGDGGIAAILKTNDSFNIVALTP
In words: AUC. The following applies: remark: other sources report otherwise.

B1: Cwf2-Myc13 (S. pombe Cwc2) (natural protein, UniProt P87126 1-388, looked up)
chain: MSENGLEQEVTVEEKNNDVTEKILVEGEKSKEYEETPRKVKIVKRKKQPARKQIETRPEYEMEPEQPGQVYNLWYNKWSGGMRQDPLKSQVKSETRCVISRDSGYTKADKNPGSFFCLYFARGMCSEGSKCEYLHRLPKDTDFFNANVDCFGREKHADYRDDMGGVGSFLRQNYTLYVGGITPTDDIEEIVSRHFAEWGDIERIRVLNSRGIAFITYLNEANAQFAKEAMAHQSLDHDECLNVRWATTDPNPASQARNQRRLEERAANAVKKLLPKQFLLDLEETKNGKSGNRKRKLELEFGLKGYVPSDDLLYADGANSVHNQLAANEFPNKSQSEEGSNDDHKSVTTTESQNKFVNSQILSDLQVAKQAVHTNQSALVSYYDSDED
The stoichiometry N is the number of molecules, sites or subunits per partner or assembly. B1: the “stoichiometry N” value in assay [1] was 2 copies of Cwf2 per four copies of Cwf8.

B2: Prp19, separately purified (analytical ultracentrifugation), P32523 1-503 (natural protein)
chain: T2 chain
B2 returned a stoichiometry N in assay [2] of 4.

(Values after paper PMC2871033 (Structure (London, England : 1993), 2010).)
